Consider five molecules from US20210155689A1 (SHANGHAI PHARMAEXPLORER, published 2021).

Changes are numbered by the printed parent chain.

Assay [1] has as its target T1, human LAG-3 protein with hFc tag (hLAG-3-hFc protein) (human, UniProt P18627 23-450).
T1 construct: also called immunogen 1; LAG-3 extracellular domain protein; not shown: human IgG Fc fragment (hFc) of the pCpC vector
T1 sequence: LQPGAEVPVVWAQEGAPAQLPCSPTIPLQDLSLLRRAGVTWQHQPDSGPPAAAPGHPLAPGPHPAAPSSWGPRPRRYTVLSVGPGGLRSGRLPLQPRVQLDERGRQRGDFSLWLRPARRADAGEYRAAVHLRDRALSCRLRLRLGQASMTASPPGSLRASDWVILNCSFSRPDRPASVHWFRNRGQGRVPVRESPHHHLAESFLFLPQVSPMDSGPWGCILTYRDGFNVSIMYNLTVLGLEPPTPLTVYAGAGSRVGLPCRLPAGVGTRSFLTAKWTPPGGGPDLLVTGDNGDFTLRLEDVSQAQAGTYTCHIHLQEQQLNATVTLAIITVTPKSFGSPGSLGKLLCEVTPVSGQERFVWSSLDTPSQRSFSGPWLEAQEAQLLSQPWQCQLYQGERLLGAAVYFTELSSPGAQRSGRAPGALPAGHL
Nature of the assay: ELISA, hLAG-3-hFc coated; 0.0667 nM. As to the method:
(§1) The plate was sealed with plastic film and incubated overnight at 4° C. The plate was washed 2 times with the plate washing solution (PBS+0.01% Tween20) on the next day, and added with the blocking solution (PBS+0.01% Tween20+1% BSA) and blocked at room temperature for 1-2 hours. The blocking solution was poured out, and the plate was added with 50-100 μl of the antibody sample to be tested to each well, incubated at 37° C. for 1-2 hours, and washed 2-3 times with a plate washing solution (PBS+0.01% Tween20). HRP (horseradish peroxidase) labeled secondary antibody was added, and the plate was incubated at 37° C. for 1-2 hours, and washed 2-3 times with a plate washing solution (PBS+0.01% Tween20). 100 μl of TMB substrate was added to each well. After incubated at room temperature for 15-30 minutes, the plate was added with 100 μl of stop solution (1.0N HCl) to each well.

In assay [2] the target is T2, mouse LAG-3 protein with hFc tag (mLAG-3-hFc protein) (mouse; human, UniProt Q61790 24-442).
T2 construct: Made in HEK293 cells; also called mouse LAG-3 extracellular domain protein; not shown: human IgG Fc fragment (hFc) of the pCpC vector
T2 sequence: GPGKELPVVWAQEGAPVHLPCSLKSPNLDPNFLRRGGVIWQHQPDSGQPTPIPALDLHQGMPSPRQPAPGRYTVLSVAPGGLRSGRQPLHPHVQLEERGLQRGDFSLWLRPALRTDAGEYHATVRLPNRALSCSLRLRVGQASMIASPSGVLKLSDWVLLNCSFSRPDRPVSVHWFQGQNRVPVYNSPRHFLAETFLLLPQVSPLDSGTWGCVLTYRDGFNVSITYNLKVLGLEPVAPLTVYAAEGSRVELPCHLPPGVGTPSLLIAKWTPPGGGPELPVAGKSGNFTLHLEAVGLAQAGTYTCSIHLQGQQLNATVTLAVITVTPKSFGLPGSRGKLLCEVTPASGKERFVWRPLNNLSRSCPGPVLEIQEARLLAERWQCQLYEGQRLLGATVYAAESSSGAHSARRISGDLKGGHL
The assay is described as follows: ELISA, mLAG-3-hFc coated; 0.0007 nM. As to the method: as §1
(In an ELISA, binding on a coated surface is turned into a signal by an enzyme label.)

Assay [3] deals with T3, human LAG-3 on cells (HEK293-hLAG-3 stable cell line) (human, UniProt P18627 23-525).
T3 sequence: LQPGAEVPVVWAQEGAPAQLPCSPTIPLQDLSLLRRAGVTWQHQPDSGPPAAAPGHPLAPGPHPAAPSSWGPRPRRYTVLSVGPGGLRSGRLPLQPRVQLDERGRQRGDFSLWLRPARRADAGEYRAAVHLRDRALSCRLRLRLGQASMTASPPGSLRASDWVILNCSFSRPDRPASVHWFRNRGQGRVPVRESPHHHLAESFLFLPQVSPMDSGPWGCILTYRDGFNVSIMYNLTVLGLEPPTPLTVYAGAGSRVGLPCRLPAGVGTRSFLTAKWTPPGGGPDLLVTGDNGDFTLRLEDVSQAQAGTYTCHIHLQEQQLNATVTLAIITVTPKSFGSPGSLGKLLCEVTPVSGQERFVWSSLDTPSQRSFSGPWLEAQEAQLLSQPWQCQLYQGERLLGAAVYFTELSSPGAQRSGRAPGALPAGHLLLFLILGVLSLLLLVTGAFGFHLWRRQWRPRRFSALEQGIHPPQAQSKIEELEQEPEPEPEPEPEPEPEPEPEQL
Nature of the assay: cell-based or functional assay.

B1: 405B8H3 (LAG-3 mouse-human chimeric antibody) (antibody, V domains shown)
VH: QVQLQQSGAELVRPGASVTLSCKASGYTFTDYEMHWVKQTPVHGLEWIGATDPETGNSAYNQKFKGKAIMTADKSSSTAYMELRSLTSEDSAVYYCISTGWNDWGQGTSLTVSS
VL: DIKMTQSPSSMYASLGERVTITCKASQDINSYLSWFQQKPGKSPKTLIYRADRLLDGVPSRFSGSGSGQDYSLTISSLEYGDMGIYYCLQYDEFPYTFGGGTKLEIK
notes: also called mouse-human chimeric antibody 405B8H3
For B1, the values for the OD450 in assay [1] and in assay [2] were 2.25 OD450 and 0.08 OD450, respectively.

B2: 409B11E12 mouse-human chimeric antibody (antibody, V domains shown)
VH: B1 VH with P41T, G56S, N57Y, M70L, S98A
VL: B1 VL with I2L, D52N, G81E
notes: also called mAb104-409B11E12
In the case of B2, in assay [3], the “IL-2 production, SEB-dependent PBMC stimulation test, 0.0032 ug/ml, N = 1” value came out at 1340 pg/mL; the “IL-2 production, SEB-dependent PBMC stimulation test, 0.0032 ug/ml, N = 2” value came out at 1190 pg/mL; the “IL-2 production, SEB-dependent PBMC stimulation test, 0.016 ug/ml, N = 1” value came to 1720 pg/mL; the “IL-2 production, SEB-dependent PBMC stimulation test, 0.016 ug/ml, N = 2” value is 1230 pg/mL. Moreover, in assay [3], the “IL-2 production, SEB-dependent PBMC stimulation test, 0.08 ug/ml, N = 1” value is 1550 pg/mL; the “IL-2 production, SEB-dependent PBMC stimulation test, 0.08 ug/ml, N = 2” value was found to be 1530 pg/mL; the “IL-2 production, SEB-dependent PBMC stimulation test, 0.4 ug/ml, N = 1” value amounted to 2820 pg/mL; the “IL-2 production, SEB-dependent PBMC stimulation test, 0.4 ug/ml, N = 2” value was determined as 1990 pg/mL. Further, in assay [3], the “IL-2 production, SEB-dependent PBMC stimulation test, 2 ug/ml, N = 1” value turned out to be 2540 pg/mL; the “IL-2 production, SEB-dependent PBMC stimulation test, 2 ug/ml, N = 2” value came to 1920 pg/mL; the “IL-2 production, SEB-dependent PBMC stimulation test, 10 ug/ml, N = 1” value is 3140 pg/mL; the “IL-2 production, SEB-dependent PBMC stimulation test, 10 ug/ml, N = 2” value was 3010 pg/mL.

B3: 409B11E12 (LAG-3 mouse-human chimeric antibody) (antibody, V domains shown)
VH: B1 VH with P41T, G56S, N57Y, M70L, S98A
VL: B1 VL with I2L, D52N, G81E
As for B3, the OD450 in assay [1] was 2.16 OD450; in assay [2], 0.08 OD450.

B4: 409D4E10 (LAG-3 mouse-human chimeric antibody) (antibody, V domains shown)
VH: B1 VH with Y27N, G56D, S58T, M70L, A72T, S98T, T99S
VL: B1 VL with D52N, G81E, D92N
Regarding B4, the OD450 in assay [1] came out at 3.1 OD450; in assay [2], 0.13 OD450.

B5: 409D4E10 mouse-human chimeric antibody (antibody, V domains shown)
VH: B1 VH with Y27N, G56D, S58T, M70L, A72T, S98T, T99S
VL: B1 VL with D52N, G81E, D92N
notes: also called mAb112-409D4E10
Consider B5, for which, in assay [3], the “IL-2 production, SEB-dependent PBMC stimulation test, 0.0032 ug/ml, N = 1” value was found to be 1660 pg/mL; the “IL-2 production, SEB-dependent PBMC stimulation test, 0.0032 ug/ml, N = 2” value amounted to 1240 pg/mL; the “IL-2 production, SEB-dependent PBMC stimulation test, 0.016 ug/ml, N = 1” value came out at 1250 pg/mL; the “IL-2 production, SEB-dependent PBMC stimulation test, 0.016 ug/ml, N = 2” value was determined as 1450 pg/mL. In addition, in assay [3], the “IL-2 production, SEB-dependent PBMC stimulation test, 0.08 ug/ml, N = 1” value is 1630 pg/mL; the “IL-2 production, SEB-dependent PBMC stimulation test, 0.08 ug/ml, N = 2” value came out at 1420 pg/mL; the “IL-2 production, SEB-dependent PBMC stimulation test, 0.4 ug/ml, N = 1” value worked out at 2170 pg/mL; the “IL-2 production, SEB-dependent PBMC stimulation test, 0.4 ug/ml, N = 2” value was 2160 pg/mL. In addition, in assay [3], the “IL-2 production, SEB-dependent PBMC stimulation test, 2 ug/ml, N = 1” value stood at 2770 pg/mL; the “IL-2 production, SEB-dependent PBMC stimulation test, 2 ug/ml, N = 2” value stood at 1940 pg/mL; the “IL-2 production, SEB-dependent PBMC stimulation test, 10 ug/ml, N = 1” value is 2740 pg/mL; the “IL-2 production, SEB-dependent PBMC stimulation test, 10 ug/ml, N = 2” value was 2100 pg/mL.
